These results are taken from IntAct's records for PubMed 26647308.

The chains are these.
B1: Forkhead box protein P1 (Homo sapiens), Q9H334 (parent)
chain: MMQESGTETKSNGSAIQNGSGGSNHLLECGGLREGRSNGETPAVDIGAADLAHAQQQQQQALQVARQLLLQQQQQQQVSGLKSPKRNDKQPALQVPVSVAMMTPQVITPQQMQQILQQQVLSPQQLQVLLQQQQALMLQQQQLQEFYKKQQEQLQLQLLQQQHAGKQPKEQQQVATQQLAFQQQLLQMQQLQQQHLLSLQRQGLLTIQPGQPALPLQPLAQGMIPTELQQLWKEVTSAHTAEETTGNNHSSLDLTTTCVSSSAPSKTSLIMNPHASTNGQLSVHTPKRESLSHEEHPHSHPLYGHGVCKWPGCEAVCEDFQSFLKHLNSEHALDDRSTAQCRVQMQVVQQLELQLAKDKERLQAMMTHLHVKSTEPKAAPQPLNLVSSVTLSKSASEASPQSLPHTPTTPTAPLTPVTQGPSVITTTSMHTVGPIRRRYSDKYNVPISSADIAQNQEFYKNAEVRPPFTYASLIRQAILESPEKQLTLNEIYNWFTRMFAYFRRNAATWKNAVRHNLSLHKCFVRVENVKGAVWTVDEVEFQKRRPQKISGNPSLIKNMQSSHAYCTPLNAALQASMAENSIPLYTTASMGNPTLGNLASAIREELNGAMEHTNSNESDSSPGRSPMQAVHPVHVKEEPLDPEEAEGPLSLVTTANHSPDFDHDRDYEDEPVNEDME

The variants in one assay derive from B1. The settings on record: with foxp2_human FOXP2, O15409.
foxp2_human FOXP2, O15409, sequence (O15409 whole entry): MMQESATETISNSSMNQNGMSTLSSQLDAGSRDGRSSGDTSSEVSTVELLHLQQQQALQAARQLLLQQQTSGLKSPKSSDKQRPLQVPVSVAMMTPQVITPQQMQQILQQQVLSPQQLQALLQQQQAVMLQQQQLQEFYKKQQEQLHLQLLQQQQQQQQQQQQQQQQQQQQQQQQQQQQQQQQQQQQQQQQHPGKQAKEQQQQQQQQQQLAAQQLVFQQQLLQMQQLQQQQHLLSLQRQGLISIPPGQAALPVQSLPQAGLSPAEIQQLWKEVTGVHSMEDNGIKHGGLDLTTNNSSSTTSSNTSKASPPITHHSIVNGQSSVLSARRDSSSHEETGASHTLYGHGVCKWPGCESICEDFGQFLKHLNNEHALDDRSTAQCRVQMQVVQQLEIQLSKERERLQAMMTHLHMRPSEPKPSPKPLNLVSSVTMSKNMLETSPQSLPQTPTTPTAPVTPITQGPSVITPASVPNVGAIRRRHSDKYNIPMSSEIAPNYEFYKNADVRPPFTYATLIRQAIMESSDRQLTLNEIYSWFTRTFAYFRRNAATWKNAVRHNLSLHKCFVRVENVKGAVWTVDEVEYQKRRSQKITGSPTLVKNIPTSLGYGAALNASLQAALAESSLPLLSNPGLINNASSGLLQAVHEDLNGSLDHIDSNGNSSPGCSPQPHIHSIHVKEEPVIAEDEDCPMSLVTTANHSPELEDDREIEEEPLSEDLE
As to N597T, the “effect of a mutation on the interaction” value is “with no effect”. For the variant R465G, the “effect of a mutation on the interaction” value is given as “with no effect”.

Turning to N570S, the “effect of a mutation on the interaction” value is “with no effect”.

Regarding W534R, the “effect of a mutation on the interaction” value is listed as “decreasing interaction strength”. With R514C, the “effect of a mutation on the interaction” value is “decreasing interaction strength”. Consider P215A, for which the “effect of a mutation on the interaction” value was “decreasing interaction strength”. On the same count and under the same terms, then I107T, with “disrupting interaction strength”.

In another assay the parent is B1. The settings on record: with foxp2_human FOXP2, O15409. The source holds these as a separate data set.
In the case of R465G, the “effect of a mutation on the interaction” value was “decreasing interaction strength”. For the variant W534R, the “effect of a mutation on the interaction” value is reported as “disrupting interaction strength”.
